For experiment [1], the target named is T1, human 4-1BB protein (human, UniProt Q07011 24-186, limits assumed).
T1 construct: Coating protein in the ELISAs of Embodiments 4 and 5; also called h4-1BB
Kind of experiment: ELISA of binding activity before and after humanization; the coated antigen is not named there, taken as 4-1BB from the legend and axis. A general note: ELISA stands for enzyme-linked immunosorbent assay.

The target in experiment [2] is T1, human 4-1BB protein. The experiment is described as follows: ELISA, plate coated with human 4-1BB protein (1 ug/mL), HRP goat anti-human IgG, OD 450 nm.
In experiment [3] the target is T1, human 4-1BB protein. Kind of experiment: ELISA, human 4-1BB coated at 1 ug/mL, HRP goat-anti-human IgG detection. As to the method:
(§1) The cross-reactive activity of the antibody with cynomolgus monkey 4-1BB molecules is determined by ELISA. The ELISA comprises steps of coating the human 4-1BB or cynomolgus monkey 4-1BB (1 μg/mL) with the ELISA plate, incubating overnight at 4 DEG C.; washing three times with PBST (0.1% Tween 20), blocking with 3% BSA for 1 h; washing three times, adding the purified anti-human 4-1BB antibody prepared in the embodiment 2 and incubating for 1 h; washing three times and adding horse radish peroxidase (HRP) labeled goat-anti-human IgG (1:2000 dilution) and incubating for 1 h; washing three times, then adding the substrate solution (TMB) and developing the color at room temperature in the dark; and finally, adding the stop solution (2N H₂SO₄) and reading the optical density (OD) value at 450 nm.

The target of experiment [4] is T2, human 4-1BB-Fc fusion protein (human, UniProt Q07011 24-186).
T2 construct: Antigen amine-coupled to the Biacore chip; also called h4-1BB-Fc fusion protein; h4-1BB; not shown: Fc part
The experiment is described as follows: SPR, Biacore T200, h4-1BB-Fc amine-coupled to chip, antibody 0.3125-5.0 ug/mL as analyte. As to the method: Affinity of the antibody: determining binding kinetics of the purified antibody which is prepared in the embodiment 2 and the h4-1BB by using BIAcore T200; coupling 1 mg/mL antigen (h4-1BB-Fc fusion protein) to the surface of a CMS chip by using an amino coupling method, binding at 30 μL/min for 300 s when the concentration of the antibody is within 0.3125-5.0 μg/mL and then dissociating for 300 s; and analyzing data recorded by the Biacore T200 by using Biacore T200 Evaluation Software, wherein analysis results are as shown in Table 1.
Background: SPR reads the build-up and loss of mass on a sensor chip optically.

The target in the next experiment is T3, human OX-40 protein (human, UniProt P43489 29-214, limits assumed).
T3 construct: Homologous family member used as the specificity control
T3 sequence (looked up): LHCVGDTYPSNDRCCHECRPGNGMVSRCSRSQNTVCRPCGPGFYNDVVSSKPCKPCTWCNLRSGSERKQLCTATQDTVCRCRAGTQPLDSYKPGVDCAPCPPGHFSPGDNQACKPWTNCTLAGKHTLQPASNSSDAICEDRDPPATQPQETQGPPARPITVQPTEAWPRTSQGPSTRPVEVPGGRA
The experiment is described as follows: ELISA, plate coated with human OX-40 protein (1 ug/mL), HRP goat anti-human IgG, OD 450 nm.

Experiment [5] deals with cynomolgus monkey 4-1BB protein (cynomolgus monkey). Kind of experiment: ELISA, cynomolgus monkey 4-1BB coated at 1 ug/mL, HRP goat-anti-human IgG detection. The method, then: as §1

B1: ab1 chimeric antibody (anti-human 4-1BB antibody ab1) (antibody, human IgG1, V domains shown)
VH: QVQLQQSGAELVRPGTSVKISCKASGYAFTNYWLGWVKQRPGHGLEWIGDIYPGNGNSYYNEKFKGRATLTADKSSSTVYMQLSSLTSEDSVVYFCTRSSSYYRDVMDYWGQGTSVTVSS
VL: DIQMTQSPASLSASVGETVTITCRASENIYSYLVWYQQKQGKSPQLLVYNAKTLAEGVSSRFSGSGSGTQFSLKINSLQPEDFGSYYCQHHYGTPLTFGAGTKLELKR
notes: also called anti-h4-1BB chimeric antibody; anti-h4-1BB monoclonal antibody
The term EC50 (read off the curve) denotes the concentration giving half of the maximal effect. The EC50 is the midpoint of the concentration-response curve. As usually defined, the Kd is the concentration at which binding is half-saturated. For orientation: koff means the rate constant with which the complex falls apart. A word on the kon: it is the second-order rate constant of association. With B1, the results for the “EC50 (read off the curve)” value in the experiment with human 4-1BB protein [1] and with human 4-1BB protein [2] were roughly 0.09 mg/L and roughly 0.1 mg/L, respectively. Also, the EC50 in the experiment with human 4-1BB protein [3] worked out at 0.67 nM; in experiment [5], 2.67 nM. Also, the Kd in experiment [4] stood at 0.0934 nM. In experiment [4], the koff is 1.37e-05 s⁻¹. The molecule also gave an association rate constant (kon) in experiment [4] of 146000 M⁻¹ s⁻¹. Further, the binding result with human OX-40 protein is “no binding”.

B2: Humanized 4-1BB antibody (antibody, V domains shown)
VH: QVQLVQSGAEVKKPGASVKVSCKASGYAFTNYWLGWVRQAPGHGLEWMGDIYPGNGNSYYAQKFQGRVTMTRDKSSSTVYMELSSLRSEDTAVYFCTRSSSYYRDVMDYWGQGTLVTVSS
VL: DIQLTQSPSFLSASVGDRVTITCRASENIYSYLVWYQQKPGKAPKLLIYNAKTLAEGVPSRFSGSGSGTEFTLTISSLQPEDFATYYCQHHYGTPLTFGAGTKLEIKR
notes: ab1 after humanization by template replacement with back mutations; also called humanized anti-human 4-1BB antibody; ab1 humanized antibody
On to B2, for which the “EC50 (read off the curve)” value with human 4-1BB protein [1] is roughly 0.05 mg/L.

Source of the values: patent publication US20200325236A1 (REYOUNG SUZHOU BIOLOGY SCIENCE AND TECHNOLOGY, published 2020).
